Laboratory results from the domain aggregation screens of Martell et al. (2025).

Experiment: soluble fraction after stress (log2 fold change); higher = more stays soluble; pooled small domains, quantitative proteomics
Settings: stress: 50 degC
In short: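 Pooled custom libraries of small protein domains were each held under stress at 50°C. The read-out, high-throughput quantitative proteomics, tracked how much of each protein stayed soluble. This is reported as a base-two log fold change used to indicate aggregation propensity. Higher values mean more protein remains in solution.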

| Sequence | soluble fraction (log2) |
| --- | --- |
| HMQVTGLTAENAHRVTMIREKGTDHPPVPFHFRKEHHGTGNYVHLYGNPEDRNELHSRDFKDWEAVAFK | 0.25 |
| HMGRHSPLSIEQKEQLKTEIVALQQQRGGGRVTAVNIAELIQQKFNVVYNPNSLYKLLKQIGMSWV | -1.2 |
| HMRYLMPDLVNRRYEPVRSLLEARGIRFGNVIFEPYEGLPPGIVLRQDPPAGHPLPRRRTVSLVVSGPGGR | -1.88 |
| HMPDKIDSAAQGILDKLIRNDGFMAVTDKSPPEAIYKLFGVSKKVFKQAIGSLYKNRLITIEDAGLRIIPQ | -0.0609 |
| HMLKNKSTGNINETKAILELALNHSHFKVFDNRDMTVTFKNLATQFTTMQRILVQMFFPLPAGVELIIE | ≥ 0.62 |
| HMEKAISSLTLEEAKKRLEMVRSEKDASLQIYKETGSETARVTAENYGKEENSLLLHISEMSNIV | -0.469 |
| HMGSGKGAAHTILGISADASDDEIKAAWRKLVQENHPDKLVSQGLPDEFVQAATDRLRLINTAYQSMLNRP | -0.0378 |
| HMNTNDFTIGTRVRTTKKGNGSSDGTSNTARSGIEGTITRIIPEAKYPYLVSTTVPMGWYKKDALEK | 0.0875 |
| HMLSNLYAVLGVGRRATPDEITAAFDAWNARADAGEPIDDPLWERVRYAWDVLSSPSRRDLYDSLVDDATG | -1.71 |
| HMSTRKAFVNGDGVRLRSGPGTNHSIRASLTKGQTVFVTGTKDGWASVSVQGGASGWVSADLLKYE | 0.232 |
| HMPPENVSVRREQIAEDKKTVYNVWVTKGNKTVLYSKVVYAWGGVYFFRDLNTSISENMYKQADAGLVN | 0.0555 |
| HMRQSKMREAILAAVSAQKLEISDLHVWRIGEQRYAAIIGLATTQAESVSALRDSLAQMDKLVHLTIDQ | -1.89 |
| HMASVAKHIRRLRTERHMTQGDLAEKLFVTRQTVSAWETGKAQPDLETLERIAVVLGVEVTELIYGAP | -0.0295 |
| HMLPELIVTTKKGVTVTVTNGVITYSATSNGKATFTVPNYGKWTVSATINGTVISKVVDVTEAKQIPVLLG | 0.196 |
| HMIHFDHPERSILDTMLYEKKGMTAQSARNRLAAYQFQGEDVFKPVSVLSGGELSRITLAIKNAMADK | -0.186 |
| HMGEQYYVLIDNKQNGPHNINAIQKMIDQNIVNRQTLIWKKGMTDWGNIMDDKDLKEMVNKIP | -0.0562 |
| HMQSLIVPVPKPEDDPVYKDGIKQDPVEVVSIWLGRDYLNMILNLKVSTGKGHTFGIVEDVS | 0.0321 |
| HMTSKVTVLAVNGRITVSGKEQDETVSVYDTGGRLLYQGESDVINVPRKAMYIVTVSRKSYKVIV | -0.941 |
| HMTGTKEQQVVMLNNILQKQLQAFELQGKRDYPMVTMKNMYNTLSKMVENAGLQTVESYFVDPIKGQQM | -0.0334 |

| Sequence | soluble fraction (log2) |
| --- | --- |
| HMDGEMRRKRILQLLSEQTKPLSGTALAKQFGVSRQVIVQDIALLKSKEPAIISTYRGYVLGR | -0.607 |
| HMKSSTEIIYSDFLREVSNGQISEVTIQGDFVRGLFLSGSSFQTYAPKDSNLINILRDKKVRIKVHPP | -0.134 |
| HMDPPISNDARNAINAKLMKFSELHPNEMKKLVEAYKKEFKVSKISPITLARQGEFLSHAISKIDDT | 0.0248 |
| HMTVTLTTLRNGSTGAQVKTLQRLLSAMDYYNGETDGKFGISTAAAVKAFQRAKRLTVDGIVGKNTWTALL | -1.18 |
| HMDVPNLVGKTLEEAENELKKLNIRYNVTERADEAPKDTVIEQSPKPYEAMEPGTVVNLVISSGPA | 0.533 |
| HMLLREKLESVLPFISVSALAKTYFKRSPQWFYQRLNGSIVNGKPIRFNDAELKTLAGALTDIGKKISQAA | -0.322 |
| HMESADEESNALMYDGLLAMRGKRYEVALEFFDALVKHDPDFAEGWNKRATVLYLLGRYERSIADIKQVLA | -0.0654 |
| HMPIQLLSEKYMDEHWDELDKDEVSLYQNMSIRFLLKHEDDINWKLYSTNPFISIDTIDFFKDKISWVNI | -2.57 |
| HMGDGYTYYYDDTVLALGFTKIGNDYYIFNTFSGKMYKDATMWVNDNPYGIKGGMHYFDASGKMFV | 0.128 |
| HMANTLDPMDLKQIISLHLDGFSNRKIGATLGISRNTVNTYMRLFSVSDYALKELLTLDNATLDKLFPS | -2.01 |
| HMRMTTEQLMSFLKQHFPQVADNFTVRISDEGRLSVEMPVNDKHLRPGGTVSGPSMFALADVAFYLAILQ | -1.16 |
| HMPPITIVPNDNGVPIIRSQTPEISTAVNVELKAAGINTHTIDGTSIRVPKAQAQVAQQIVSRVNTRFT | 0.158 |
| HMKSVTVIFKESGNVVSSKKLSVVATAQYVDKSRITAPAGYRIATTDSKLKISENNTVTVEVK | 0.212 |
| HMKLHPRDQERTRAISARGERLYAVTVGDLRRRIGEMLEWFGRQIESQEPMRVAKAARRITDFFDQVEAFT | -2.06 |
| HMAELAKAKLDAAVQVALLKAGALDTDYLAYKLQGMDGVALDDKGSLTGWDTTLETLKSQYPTQFA | -0.302 |
| HMQISDTTELSTLITKVLSEQSDALVDFKNPKKQKQVIGYLTGQVLRASQGKANPGLVRSLLEEQLSALDS | 0.124 |
| HMSNWYGTVVKIQPRPNAQAADTAVVKLLDGSEHRFPVWADHLTTIEVGSRLKKLSGGWDPVLMDPEETF | -0.454 |
| HMETYHIQMKGDPSKGIVGFSQLDMVIDKIKRLETEKGIAPYELEVLDGDTMEKYSGEEFLTMHE | 0.0939 |
